Test results as given in publication PMC5823874.

Assays:
[1] = target: Calcium-independent phospholipase A2β, short variant (SH-iPLA2β, 752 amino acids), wild type (Chinese hamster (gene cloned from CHO cells)); test: AUC; sedimentation velocity, 20 °C, 35,000 rpm, absorbance at 280 nm; 25 mM HEPES 7.5, 500 mM NaCl, 10% glycerol; c(s) model in SEDFIT
[2] = target: FAM-labeled calmodulin T34C (UniProt P0DP23); test: fluorescence polarisation; fluorescence anisotropy; 30 nM FAM-CaM with Ca2+, titrated with a twofold dilution series of iPLA2β; 25 mM HEPES 7.5, 150 mM NaCl, 10% glycerol; 15 min at 25 °C
[3] = target: Calcium-independent phospholipase A2β, short variant (SH-iPLA2β, 752 amino acids), wild type (Chinese hamster (gene cloned from CHO cells))

Row | stoichiometry N [1] | Kd [2] | Ki of inhibition of iPLA2β enzymatic activity by CaM in the presence of Ca2+ (fluorogenic assay with Pyrene-PC liposomes) [3] | Substance
1 | 2 | 112 nM | – | Calcium-independent phospholipase A2β, short variant (SH-iPLA2β, 752 amino acids), wild type (enzyme)
2 | – | – | 23 nM | Calmodulin (CaM), unmodified (from UniProt P0DP23 1-149) (natural protein)
3 | – | > 1400 nM | – | iPLA2β W695E mutant (enzyme)
